Two molecules from patent EP0332424A2 (dated 1991) can be followed below.

Experiment [1] has as its target T1, human carcinoembryonic antigen (human, UniProt P06731 35-685, 125I label (125I-CEA, the tracer in the radioimmunoassay)).
T1 construct: Used as a 125I-labelled tracer; also called CEA
T1 sequence (looked up): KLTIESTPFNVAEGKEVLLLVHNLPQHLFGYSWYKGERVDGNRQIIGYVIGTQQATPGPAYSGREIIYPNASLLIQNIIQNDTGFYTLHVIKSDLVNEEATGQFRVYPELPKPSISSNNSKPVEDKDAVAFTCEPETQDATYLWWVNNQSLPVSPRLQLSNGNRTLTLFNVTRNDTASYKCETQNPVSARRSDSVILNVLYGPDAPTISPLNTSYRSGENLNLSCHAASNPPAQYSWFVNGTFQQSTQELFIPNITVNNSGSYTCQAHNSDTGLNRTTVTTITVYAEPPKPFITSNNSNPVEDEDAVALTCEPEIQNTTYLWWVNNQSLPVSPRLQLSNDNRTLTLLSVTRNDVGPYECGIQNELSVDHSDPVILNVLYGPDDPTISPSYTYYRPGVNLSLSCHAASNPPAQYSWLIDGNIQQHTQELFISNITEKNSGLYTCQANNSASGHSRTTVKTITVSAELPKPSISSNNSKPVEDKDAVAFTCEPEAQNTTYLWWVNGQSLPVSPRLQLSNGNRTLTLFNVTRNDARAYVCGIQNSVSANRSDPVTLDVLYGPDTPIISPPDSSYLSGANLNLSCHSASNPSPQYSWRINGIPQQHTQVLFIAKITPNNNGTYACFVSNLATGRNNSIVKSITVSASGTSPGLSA
Nature of the experiment: solid phase radioimmunoassay: culture supernatant, 125I-CEA, Sepharose-bound goat anti-human IgG.

Experiment [2] addresses T1, human carcinoembryonic antigen. Nature of the experiment: affinity comparison by radioimmunoassay and Scatchard analysis; Ka not given.

B1: chimeric antibody XCEM 449 (antibody, V domains shown)
VH: DVQLVESGGGLVQPGGSRKLSCAASGFTFSNFGMHWIRQAPEKGLEWVAYISGGSSTIYYADTVKGRFTISRDNPRNTLFLQMTSLRSEDTAMFYCARDYYANNYWYFDVWGAGTTVTVSS
VL: DIVMTQSQKFMSTSVGDRVSITCKASQNVRTAVAWYQQKPGQSPKALIYLASNRYTGVPDRFTGSGSGTDFTLTITNVQSEDLADYFCLQHWNYPLTFGAGTKLELKR
notes: the one-letter code is converted from the printed three-letter code; also called CEM-chimeric antibody; chimeric CEM antibody
As to B1, the binding result in experiment [1] was “binds”.

B2: murine monoclonal antibody of hybridoma CEM 231.6.7 (antibody, V domains shown)
VH: B1 VH
VL: B1 VL
notes: also called murine antibody counterparts; ATCC HB9620
In the case of B2, the binding result in experiment [2] is “binds”.
